No end group written: not given here.

The target in one assay is T1, human Y4 receptor (human, UniProt P50391 1-375). Briefly: 125I-PP displacement.
T1 sequence (P50391 whole entry): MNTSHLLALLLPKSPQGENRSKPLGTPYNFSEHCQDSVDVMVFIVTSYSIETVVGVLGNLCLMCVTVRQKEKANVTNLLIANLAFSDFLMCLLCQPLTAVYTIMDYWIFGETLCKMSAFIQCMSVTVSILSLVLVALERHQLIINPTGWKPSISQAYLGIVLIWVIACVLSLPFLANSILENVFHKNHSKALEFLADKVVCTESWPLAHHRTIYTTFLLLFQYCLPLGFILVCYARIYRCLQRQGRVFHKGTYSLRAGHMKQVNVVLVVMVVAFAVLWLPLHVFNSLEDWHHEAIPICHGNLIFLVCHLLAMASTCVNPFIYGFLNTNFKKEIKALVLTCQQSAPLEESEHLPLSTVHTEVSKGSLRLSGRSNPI
For APLEPVYPGDNATPEQMAQYAADLRRYINFLTRPRY (ends and bridges not checked) [compound of SEQ ID NO:261 (code 4055715)], the IC50 was determined as 0.13 nM.

Molecule APLEPEYPGDNATPEQMAQYAADLRRYINMLTRPRY (ends and bridges not checked) [compound of SEQ ID NO:276 (4055746)] had an IC50 of 0.16 nM.

As to APLEPFYPGDNATPEQMAQYAADLRRYINMLTRPRY (ends and bridges not checked) [compound of SEQ ID NO:275 (code 4055745)], the IC50 worked out at 0.17 nM.

For the molecule APLEPVYPGDNATPEQMAQYAADLRRYINMLTRPRF (ends and bridges not checked) [compound of SEQ ID NO:255 (code 4055708)], the IC50 turned out to be 0.16 nM.

Molecule APLEPVYPGDNATPEQMAQYAADLRRYINVLTRPRY (ends and bridges not checked) [compound of SEQ ID NO:260 (code 4055714)] returned an IC50 of 0.09 nM.

As for APLEPVYPGDNATPEQMAQYAADLRRYINKLTRPRY [compound of SEQ ID NO:281 (Lys 30, code 4055855)], the IC50 worked out at 0.16 nM.

Another assay deals with T1, human Y4 receptor. Briefly: 125I-PP displacement. The source holds these as a separate data set.
Take AAPLEPVYPGDNATPEQMAKYAADLRRYINKLTRPRY [compound of SEQ ID NO:348 (Ala 0, Lys19, Lys 30, code 4056385)]: the 50% inhibitory concentration (IC50) was found to be 0.051 nM.

The target of the next assay is T1, human Y4 receptor. Briefly: 125I-PP displacement. The source holds these as a separate data set.
As to PLEPSYPGDNATPEQLAKYAAELRRYINKLTRPRY [4058912], the IC50 came out at 0.0495 nM.

For GAPLEPKYPGDNATPEEMAKYAAELRRYINKLTRPRY [4058911], the IC50 worked out at 0.077 nM.

For APLEPSYPGDNATPEQLAKYAAELRRYINKLTRPRY [4058913], the concentration for half-maximal inhibition (IC50) came out at 0.0775 nM.

The next assay deals with T1, human Y4 receptor. Put plainly: 125I-PP displacement. This is another data set of the same source.
Consider PLEPHYPGDDATPQQMAHYYSELRRYINKLTRPRY [4457895], for which the IC50 was determined as 0.145 nM.

For the molecule GAPLEPKYPGDNATPEEKAKYAAELRRYINKLTRPRY [4061236], the IC50 worked out at 0.052 nM.

The molecule PAPLEPKYPGDNATPEQMAKYAAELRRYINKLTRPRY [4068672] showed a half-inhibitory concentration (IC50) of 0.059 nM.

Take PAPLEPKYPGDNATPEEMAKYAAELRRYIDKLTRPRY [4061237]: the IC50 was found to be 0.16 nM.

Molecule PAPLEPKYPGDNATPEEKAKYAAELRRYINKLTRPRY [4061235] yielded a half-maximal inhibitory concentration (IC50) of 0.054 nM.

For the molecule PAPLEPTYPGDNATPEEKAKYYSELRRYINKLTRPRY [4061239], the IC50 is 0.054 nM.

The molecule GAPLEPKYPGDNATPEEMAKYAAELRRYIDKLTRPRY [4061238] came in with an IC50 of 0.138 nM.

Values taken from US20100279930A1 (published 2010).
